Laboratory results published in patent publication US20090203610A1, “METHODS OF TREATING OBESITY OR DIABETES USING NT-4/5” (RINAT NEUROSCIENCE CORPORATION, priority 2004, published 2009).

What was measured:
Assay type in all cases: in vivo
db/db mice [1] = assay: Body weight of db/db mice (Example 1); conditions: for body weight, mean / body weight expressed as % of baseline, mean: NT-4/5 20 mg/kg s.c., Rosiglitazone 3 mg/kg p.o.
Experimental: Throughout the experiment period (T1-T26), daily individual body weights as well as food intake per cage were measured.

db/db mice [2] = assay: Triglyceride after two weeks daily s.c. NT-4/5 in db/db mice (Example 2); conditions: day 14; 2, 5, 10 or 20 mg/kg s.c. daily for two weeks
Experimental: In another experiment, db/db mice were subcutaneously injected with vehicle (PBS) or NT-4/5 at 2 mg/kg, 5 mg/kg, 10 mg/kg, or 20 mg/kg daily for two weeks.

db/db mice [3] = assay: Body weight and food intake, daily s.c. dosing day 1 to 30 in db/db mice (Example 2)
Experimental: Female db/db mice (12 weeks old) were divided into three groups and were subcutaneously injected with vehicle (PBS) or NT-4/5 at doses of 5 mg/kg, or 20 mg/kg daily from day 1 to day 30. […] Food intake was reduced to about 20% of the vehicle group level after 10 days of administration of NT-4/5 at 20 mg/kg and was maintained at that level until day 30. Food intake was returned to about the same level as the vehicle group about 12 days after stop of treatment.

[4] = tested on: NONcNZO-10 polygenic obese and diabetic mice; assay: Body weight after intravenous NT-4/5 in NONcNZO-10 mice (Example 3); conditions: i.v. 1 mg/kg
Experimental: Experiment was also performed on the same type of mice by intravenous injection of vehicle (PBS) and NT-4/5 (1 mg/kg) on day 1 and on day 5. About 5% to about 10% reduction of body weight was observed between NT-4/5 treated group and vehicle group between day 2 and day 15.

[5] = tested on: NONcNZO-10 polygenic obese mice; assay: Non-fasting blood triglyceride level in NONcNZO-10 mice (Example 4, Table 18)
Description: Test animals: 40 male NONcNZO-10 polygenic obese mice obtained from Jackson Laboratory at 10 weeks of age weighing in the range of 26-32 g were used in this study.
Administration of NT-4/5: NT-4/5 was produced in E. coli as descried in U.S. Pat. No. 6,184,360. The mice were divided into 6 groups of equivalent body weight and baseline blood glucose distribution (6-7 mice per group). […] A “paired-fed” control group received daily injection of vehicle, but were only fed with the same amount of food the 3 mg/kg group consumed the previous day. On the day when the treatment started (day 1), a baseline blood samples were collected for measuring glucose and triglyceride. Triglyceride level was measured on day 10. At the end of the study (day 12), a terminal blood sample was collected to determine glucose, triglyceride, electrolytes (Na, K, Cl), testoterone, corticosterone, thyroid hormone (total T4) and thyroid stimulating hormone (TSH) levels. Electrolytes, free testosterone, T4 and TSH levels of serum samples were measured by AniLytics (Gaithesburg, M.D) according to the standard protocols employed by the vendor. Other analytes were measured as described above. Body weight, food intake were monitored 5 days per week through out the entire study. Daily water intake was measured from day 5 through day 7.

[6] = Serum half life after single subcutaneous dose in db/db mice (Example 7); conditions: single subcutaneous dose of 4 mg/kg in db/db mice; estimated
Description: In addition, pegylated NT-4/5 has extended half life in vivo.

db/db mice [7] = assay: Non-fasting serum glucose after single injection in db/db mice (Example 7); conditions: after 4 days; single subcutaneous injection, 5 mg/kg
Experimental: Test animals: 30 female db/db mice at 7 weeks of age weighing in the range of 27-34 g were used in this study.
Administration of NT-4/5 and pegylated NT-4/5: Wild type NT-4/5 was obtained from Genentech Inc. The mice were divided into 5 groups of equivalent body weight distribution (6 mice per group). Each group received on the first day (day 1) of the study one and the only dose of either vehicle, 5 mg/kg of NT-4/5 produced as described above, 5 mg/kg of 2PEG-NT4-G1S, or 5 mg/kg of 1PEG-NT4-G1S. 2PEG-NT4-G1S represents one PEG molecule was conjugated to each NT-4/5 monomer in a NT-4/5 dimer, and 1PEG-NT4-G1S represents one PEG molecule was conjugated to only one monomer of the NT-4/5 dimer. 2PEG-NT4-G1S and 1PEG-NT4-G1S were separated by ion exchange. Four days before starting the treatment (day −4), blood samples were collected from the mice as described previously for the determination of baseline levels of serum glucose. On day 4 after the treatment started, blood samples were collected again to determine serum glucose level. Body weight and food intake were monitored 5 days a week through out the entire study.

B1: NT-4/5: mature human neurotrophin-4/5 (SEQ ID NO:1), obtained from Genentech or produced in E. coli (protein, listed as Homo sapiens)
chain: GVSETAPASRRGELAVCDAVSGWVTDRRTAVDLRGREVEVLGEVPAAGGSPLRQYFFETRCKADNAEEGGPGAGGGGCRGVDRRHWVSECKAKQSYVRALTADAQGRVGWRWIRIDTACVCTLLSRTGRA
- body weight during treatment (db/db mice [1]; 20 mg/kg s.c.): gradually lost weight during the treatment
- body weight, mean (db/db mice [1]; Day 0): 41.8 g
- body weight expressed as % of baseline, mean (db/db mice [1]; Day 1): 97.8 % of baseline
- body weight, mean (db/db mice [1]; Day 1): 40.8 g
- body weight expressed as % of baseline, mean (db/db mice [1]; Day 2): 95.7 % of baseline
- body weight, mean (db/db mice [1]; Day 2): 40.0 g
- body weight expressed as % of baseline, mean (db/db mice [1]; Day 3): 94.6 % of baseline
- body weight, mean (db/db mice [1]; Day 3): 39.5 g
- body weight expressed as % of baseline, mean (db/db mice [1]; Day 4): 92.9 % of baseline
- body weight, mean (db/db mice [1]; Day 4): 38.8 g
- body weight expressed as % of baseline, mean (db/db mice [1]; Day 5): 91.6 % of baseline
- body weight, mean (db/db mice [1]; Day 5): 38.3 g
- body weight expressed as % of baseline, mean (db/db mice [1]; Day 6): 88.5 % of baseline
- body weight, mean (db/db mice [1]; Day 6): 37.0 g
- body weight expressed as % of baseline, mean (db/db mice [1]; Day 7): 87.4 % of baseline
- body weight, mean (db/db mice [1]; Day 7): 36.5 g
- body weight expressed as % of baseline, mean (db/db mice [1]; Day 8): 87.3 % of baseline
- body weight, mean (db/db mice [1]; Day 8): 36.5 g
- body weight expressed as % of baseline, mean (db/db mice [1]; Day 9): 86.5 % of baseline
- body weight, mean (db/db mice [1]; Day 9): 36.6 g
- body weight expressed as % of baseline, mean (db/db mice [1]; Day 10): 85.4 % of baseline
- body weight, mean (db/db mice [1]; Day 10): 36.1 g
- body weight expressed as % of baseline, mean (db/db mice [1]; Day 11): 84.1 % of baseline
- body weight, mean (db/db mice [1]; Day 11): 35.6 g
- body weight expressed as % of baseline, mean (db/db mice [1]; Day 12): 83.3 % of baseline
- body weight, mean (db/db mice [1]; Day 12): 35.2 g
- body weight expressed as % of baseline, mean (db/db mice [1]; Day 13): 80.8 % of baseline
- body weight, mean (db/db mice [1]; Day 13): 34.2 g
- body weight expressed as % of baseline, mean (db/db mice [1]; Day 14): 79.8 % of baseline
- body weight, mean (db/db mice [1]; Day 14): 33.7 g
- body weight expressed as % of baseline, mean (db/db mice [1]; Day 15): 80.1 % of baseline
- body weight, mean (db/db mice [1]; Day 15): 33.9 g
- body weight expressed as % of baseline, mean (db/db mice [1]; Day 18): 83.1 % of baseline
- body weight, mean (db/db mice [1]; Day 18): 35.1 g
- body weight expressed as % of baseline, mean (db/db mice [1]; Day 19): 84.4 % of baseline
- body weight, mean (db/db mice [1]; Day 19): 35.7 g
- body weight expressed as % of baseline, mean (db/db mice [1]; Day 20): 84.1 % of baseline
- body weight, mean (db/db mice [1]; Day 20): 35.6 g
- body weight expressed as % of baseline, mean (db/db mice [1]; Day 21): 85.6 % of baseline
- body weight, mean (db/db mice [1]; Day 21): 36.2 g
- body weight expressed as % of baseline, mean (db/db mice [1]; Day 22): 86.4 % of baseline
- body weight, mean (db/db mice [1]; Day 22): 36.5 g
- body weight expressed as % of baseline, mean (db/db mice [1]; Day 25): 91.7 % of baseline
- body weight, mean (db/db mice [1]; Day 25): 38.8 g
- body weight expressed as % of baseline, mean (db/db mice [1]; Day 26): 93.1 % of baseline
- body weight, mean (db/db mice [1]; Day 26): 39.4 g
- triglyceride level as compared to vehicle (db/db mice [2]): Significant reduction
- food intake, % of the vehicle group level (db/db mice [3]; 20 mg/kg, after 10 days of administration, maintained until day 30): about 20%
- body weight (db/db mice [3]; 5 or 20 mg/kg s.c. daily day 1 to 30): reduced body weight in a dose dependent manner
- time after stop of treatment until food intake returned to vehicle group level (db/db mice [3]; mouse, in vivo): about 12 days
- time body weight reduction maintained after 2 staggered intravenous doses [4]: up to 10 days
- non-fasting blood triglyceride levels ([5]; daily subcutaneous injection): significantly reduced
- non-fasting blood triglyceride level ([5]; lowest dose 0.1 mg/kg/day s.c.): significantly reduced
- serum half life [6]: 41 to 52 min
- non-fasting serum glucose levels (db/db mice [7]): showed a tendency to reduce
